# Laboratory results: publication PMC9482650, “Quantitative fragmentomics allow affinity mapping of interactomes” (Nature Communications, 2022)
# Target: GRID2IP_2, A4D2P6
# Test: holdup assay
# Parameters: key: below the threshold = too weak to quantify, mostly under pKd 3.1 to 4
# Settings: plain residues with an end cap or a label only (N-terminal biotin on a linker: ado-ado)
# GRID2IP_2, A4D2P6, sequence (A4D2P6 272-370): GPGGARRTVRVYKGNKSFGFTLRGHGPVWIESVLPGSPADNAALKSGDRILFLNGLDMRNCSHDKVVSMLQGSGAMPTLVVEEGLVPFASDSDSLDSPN
row,Binder,pKd
1,"GQNMTVSVVI [PRLHR, P49683]",below the threshold
2,"TKEIPNCTSV [SORCS3, Q9UPU3]",4.29

# Target: T1, SYNJ2BP, P57105
# T1 sequence (P57105 8-110, limits assumed, looked up): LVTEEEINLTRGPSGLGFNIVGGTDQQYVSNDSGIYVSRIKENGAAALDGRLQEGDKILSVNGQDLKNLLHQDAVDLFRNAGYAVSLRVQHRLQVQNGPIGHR
# Test: holdup assay
# Parameters: key: below the threshold = too weak to quantify, mostly under pKd 3.1 to 4
# Settings: plain residues with an end cap or a label only (N-terminal biotin on a linker: ado-ado)
row,Binder,pKd
1,"GQNMTVSVVI [PRLHR, P49683]",3.47
2,"TKEIPNCTSV [SORCS3, Q9UPU3]",4.72

# Target: GRID2IP_1, A4D2P6
# Sequence (A4D2P6 1-87): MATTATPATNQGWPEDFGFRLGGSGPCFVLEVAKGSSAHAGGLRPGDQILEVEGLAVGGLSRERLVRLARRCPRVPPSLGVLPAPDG
# Test: holdup assay
# Parameters: key: below the threshold = too weak to quantify, mostly under pKd 3.1 to 4
# Settings: plain residues with an end cap or a label only (N-terminal biotin on a linker: ado-ado)
row,Binder,pKd
1,"GQNMTVSVVI [PRLHR, P49683]",below the threshold
2,"TKEIPNCTSV [SORCS3, Q9UPU3]",below the threshold

# Target: T2, GRIP1_3, Q9Y3R0
# T2 sequence (Q9Y3R0 247-346, limits assumed, looked up): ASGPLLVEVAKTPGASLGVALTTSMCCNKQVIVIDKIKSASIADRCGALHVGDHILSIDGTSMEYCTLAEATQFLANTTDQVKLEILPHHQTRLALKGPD
# Test: holdup assay
# Parameters: key: below the threshold = too weak to quantify, mostly under pKd 3.1 to 4
# Settings: plain residues with an end cap or a label only (N-terminal biotin on a linker: ado-ado)
row,Binder,pKd
1,"GQNMTVSVVI [PRLHR, P49683]",below the threshold
2,"TKEIPNCTSV [SORCS3, Q9UPU3]",below the threshold

# Target: TJP1_3, Q07157
# Sequence (Q07157 416-512): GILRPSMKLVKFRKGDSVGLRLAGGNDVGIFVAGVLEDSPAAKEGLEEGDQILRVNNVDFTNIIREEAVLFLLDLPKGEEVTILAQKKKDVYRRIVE
# Test: holdup assay
# Parameters: key: below the threshold = too weak to quantify, mostly under pKd 3.1 to 4
# Settings: plain residues with an end cap or a label only (N-terminal biotin on a linker: ado-ado)
row,Binder,pKd
1,"GQNMTVSVVI [PRLHR, P49683]",below the threshold
2,"TKEIPNCTSV [SORCS3, Q9UPU3]",below the threshold

# Target: AHNAK1, Q09666
# Sequence (Q09666 4-100): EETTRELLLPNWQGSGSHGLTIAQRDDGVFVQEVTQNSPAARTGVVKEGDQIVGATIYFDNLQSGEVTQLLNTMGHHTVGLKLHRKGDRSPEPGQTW
# Test: holdup assay
# Parameters: key: below the threshold = too weak to quantify, mostly under pKd 3.1 to 4
# Settings: plain residues with an end cap or a label only (N-terminal biotin on a linker: ado-ado)
row,Binder,pKd
1,"GQNMTVSVVI [PRLHR, P49683]",below the threshold
2,"TKEIPNCTSV [SORCS3, Q9UPU3]",below the threshold

# Target: MAGI1_2, Q96QZ7
# Sequence (Q96QZ7 456-580): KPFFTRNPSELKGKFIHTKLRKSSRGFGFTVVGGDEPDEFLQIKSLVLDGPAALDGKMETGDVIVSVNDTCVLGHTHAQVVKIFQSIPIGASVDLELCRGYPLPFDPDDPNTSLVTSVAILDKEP
# Test: holdup assay
# Parameters: key: below the threshold = too weak to quantify, mostly under pKd 3.1 to 4
# Settings: plain residues with an end cap or a label only (N-terminal biotin on a linker: ado-ado)
row,Binder,pKd
1,"GQNMTVSVVI [PRLHR, P49683]",below the threshold
2,"TKEIPNCTSV [SORCS3, Q9UPU3]",3.94

# Target: T3, MPDZ_12, O75970
# T3 sequence (O75970 1857-1958, limits assumed, looked up): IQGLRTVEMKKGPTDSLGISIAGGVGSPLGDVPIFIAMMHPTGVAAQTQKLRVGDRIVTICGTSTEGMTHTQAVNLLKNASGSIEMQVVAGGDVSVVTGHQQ
# Test: holdup assay
# Parameters: key: below the threshold = too weak to quantify, mostly under pKd 3.1 to 4
# Settings: plain residues with an end cap or a label only (N-terminal biotin on a linker: ado-ado)
row,Binder,pKd
1,"GQNMTVSVVI [PRLHR, P49683]",below the threshold
2,"TKEIPNCTSV [SORCS3, Q9UPU3]",3.84

# Target: T4, SHANK1, Q9Y566
# T4 sequence (Q9Y566 658-767, limits assumed, looked up): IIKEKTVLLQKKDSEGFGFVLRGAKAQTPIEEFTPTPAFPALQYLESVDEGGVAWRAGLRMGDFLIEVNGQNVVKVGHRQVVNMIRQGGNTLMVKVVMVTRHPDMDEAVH
# Test: holdup assay
# Parameters: key: below the threshold = too weak to quantify, mostly under pKd 3.1 to 4
# Settings: plain residues with an end cap or a label only (N-terminal biotin on a linker: ado-ado)
row,Binder,pKd
1,"GQNMTVSVVI [PRLHR, P49683]",below the threshold
2,"TKEIPNCTSV [SORCS3, Q9UPU3]",3.92

# Target: T5, DFNB31_1, Q9P202
# T5 sequence (Q9P202 135-233, limits assumed, looked up): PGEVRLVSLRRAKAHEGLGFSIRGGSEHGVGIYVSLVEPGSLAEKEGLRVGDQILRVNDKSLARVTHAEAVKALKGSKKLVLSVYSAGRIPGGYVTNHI
# Test: holdup assay
# Parameters: key: below the threshold = too weak to quantify, mostly under pKd 3.1 to 4
# Settings: plain residues with an end cap or a label only (N-terminal biotin on a linker: ado-ado)
row,Binder,pKd
1,"GQNMTVSVVI [PRLHR, P49683]",below the threshold
2,"TKEIPNCTSV [SORCS3, Q9UPU3]",4.06

# Target: PDZRN4_1, Q6ZMN7
# Sequence (Q6ZMN7 213-318): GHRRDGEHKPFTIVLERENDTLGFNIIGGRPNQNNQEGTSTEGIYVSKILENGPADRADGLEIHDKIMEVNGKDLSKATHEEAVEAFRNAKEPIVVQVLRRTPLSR
# Test: holdup assay
# Parameters: key: below the threshold = too weak to quantify, mostly under pKd 3.1 to 4
# Settings: plain residues with an end cap or a label only (N-terminal biotin on a linker: ado-ado)
row,Binder,pKd
1,"GQNMTVSVVI [PRLHR, P49683]",below the threshold
2,"TKEIPNCTSV [SORCS3, Q9UPU3]",3.94

# Target: T6, PTPN13_1, Q12923
# T6 sequence (Q12923 1088-1188, limits assumed, looked up): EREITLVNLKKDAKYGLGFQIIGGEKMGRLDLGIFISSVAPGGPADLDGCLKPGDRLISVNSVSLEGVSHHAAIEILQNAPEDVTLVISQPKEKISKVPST
# Test: holdup assay
# Parameters: key: below the threshold = too weak to quantify, mostly under pKd 3.1 to 4
# Settings: plain residues with an end cap or a label only (N-terminal biotin on a linker: ado-ado)
row,Binder,pKd
1,"GQNMTVSVVI [PRLHR, P49683]",below the threshold
2,"TKEIPNCTSV [SORCS3, Q9UPU3]",below the threshold

# Target: DLG1_1, Q12959
# Test: holdup assay
# Parameters: key: below the threshold = too weak to quantify, mostly under pKd 3.1 to 4
# Settings: plain residues with an end cap or a label only (N-terminal biotin on a linker: ado-ado)
row,Binder,pKd
1,"GQNMTVSVVI [PRLHR, P49683]",below the threshold
2,"TKEIPNCTSV [SORCS3, Q9UPU3]",4.22

# Target: T7, DFNB31_3, Q9P202
# T7 sequence (Q9P202 811-907, limits assumed, looked up): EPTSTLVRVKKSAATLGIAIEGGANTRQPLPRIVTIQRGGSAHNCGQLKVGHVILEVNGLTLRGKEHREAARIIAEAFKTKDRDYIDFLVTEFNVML
# Test: holdup assay
# Parameters: key: below the threshold = too weak to quantify, mostly under pKd 3.1 to 4
# Settings: plain residues with an end cap or a label only (N-terminal biotin on a linker: ado-ado)
row,Binder,pKd
1,"GQNMTVSVVI [PRLHR, P49683]",4.21
2,"TKEIPNCTSV [SORCS3, Q9UPU3]",4.05

# Target: NHERF2_2, Q15599
# Sequence (Q15599 142-238): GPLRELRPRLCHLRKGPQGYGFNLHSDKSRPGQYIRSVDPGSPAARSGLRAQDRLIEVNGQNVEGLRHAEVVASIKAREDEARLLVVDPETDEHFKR
# Test: holdup assay
# Parameters: key: below the threshold = too weak to quantify, mostly under pKd 3.1 to 4
# Settings: plain residues with an end cap or a label only (N-terminal biotin on a linker: ado-ado)
row,Binder,pKd
1,"GQNMTVSVVI [PRLHR, P49683]",3.69
2,"TKEIPNCTSV [SORCS3, Q9UPU3]",3.94

# Target: FRMPD2_3, Q68DX3
# Sequence (Q68DX3 1073-1166): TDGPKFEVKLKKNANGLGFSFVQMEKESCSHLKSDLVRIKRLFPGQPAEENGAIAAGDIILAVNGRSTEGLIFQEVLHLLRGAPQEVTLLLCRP
# Test: holdup assay
# Parameters: key: below the threshold = too weak to quantify, mostly under pKd 3.1 to 4
# Settings: plain residues with an end cap or a label only (N-terminal biotin on a linker: ado-ado)
row,Binder,pKd
1,"GQNMTVSVVI [PRLHR, P49683]",below the threshold
2,"TKEIPNCTSV [SORCS3, Q9UPU3]",below the threshold

# Target: Inadl_8, Q8NI35
# Sequence (Q8NI35 1425-1530): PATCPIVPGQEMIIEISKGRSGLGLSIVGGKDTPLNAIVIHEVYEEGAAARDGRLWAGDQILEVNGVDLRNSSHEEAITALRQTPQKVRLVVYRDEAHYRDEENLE
# Test: holdup assay
# Parameters: key: below the threshold = too weak to quantify, mostly under pKd 3.1 to 4
# Settings: plain residues with an end cap or a label only (N-terminal biotin on a linker: ado-ado)
row,Binder,pKd
1,"GQNMTVSVVI [PRLHR, P49683]",3.8
2,"TKEIPNCTSV [SORCS3, Q9UPU3]",4.28

# Target: DLG4_3, P78352
# Sequence (P78352 306-403): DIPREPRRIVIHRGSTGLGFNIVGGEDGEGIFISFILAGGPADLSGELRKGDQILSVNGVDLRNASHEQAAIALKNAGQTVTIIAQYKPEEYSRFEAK
# Test: holdup assay
# Parameters: key: below the threshold = too weak to quantify, mostly under pKd 3.1 to 4
# Settings: plain residues with an end cap or a label only (N-terminal biotin on a linker: ado-ado)
row,Binder,pKd
1,"GQNMTVSVVI [PRLHR, P49683]",below the threshold
2,"TKEIPNCTSV [SORCS3, Q9UPU3]",3.71

# Target: T8, APBA1_2, Q02410
# T8 sequence (Q02410 742-832, limits assumed, looked up): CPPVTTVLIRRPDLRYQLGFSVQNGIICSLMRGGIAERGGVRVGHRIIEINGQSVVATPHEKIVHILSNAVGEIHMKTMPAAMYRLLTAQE
# Test: holdup assay
# Parameters: key: below the threshold = too weak to quantify, mostly under pKd 3.1 to 4
# Settings: plain residues with an end cap or a label only (N-terminal biotin on a linker: ado-ado)
row,Binder,pKd
1,"GQNMTVSVVI [PRLHR, P49683]",3.87
2,"TKEIPNCTSV [SORCS3, Q9UPU3]",4.64

# Target: MAGI1_1, Q96QZ7
# Sequence (Q96QZ7 1-106): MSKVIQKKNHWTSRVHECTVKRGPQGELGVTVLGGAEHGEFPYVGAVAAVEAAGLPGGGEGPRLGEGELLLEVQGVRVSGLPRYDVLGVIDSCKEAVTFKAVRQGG
# Test: holdup assay
# Parameters: key: below the threshold = too weak to quantify, mostly under pKd 3.1 to 4
# Settings: plain residues with an end cap or a label only (N-terminal biotin on a linker: ado-ado)
row,Binder,pKd
1,"GQNMTVSVVI [PRLHR, P49683]",4.22
2,"TKEIPNCTSV [SORCS3, Q9UPU3]",below the threshold

# Target: DLG4_2, P78352
# Sequence (P78352 155-259): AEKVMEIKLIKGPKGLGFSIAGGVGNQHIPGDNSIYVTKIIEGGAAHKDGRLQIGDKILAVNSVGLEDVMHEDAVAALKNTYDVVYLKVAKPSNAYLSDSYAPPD
# Test: holdup assay
# Parameters: key: below the threshold = too weak to quantify, mostly under pKd 3.1 to 4
# Settings: plain residues with an end cap or a label only (N-terminal biotin on a linker: ado-ado)
row,Binder,pKd
1,"GQNMTVSVVI [PRLHR, P49683]",below the threshold
2,"TKEIPNCTSV [SORCS3, Q9UPU3]",4.28

# Target: DLG5_1, Q8TDM6
# Sequence (Q8TDM6 617-713): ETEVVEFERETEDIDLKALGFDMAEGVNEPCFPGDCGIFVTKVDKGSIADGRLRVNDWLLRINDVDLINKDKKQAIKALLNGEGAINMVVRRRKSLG
# Test: holdup assay
# Parameters: key: below the threshold = too weak to quantify, mostly under pKd 3.1 to 4
# Settings: plain residues with an end cap or a label only (N-terminal biotin on a linker: ado-ado)
row,Binder,pKd
1,"GQNMTVSVVI [PRLHR, P49683]",3.97
2,"TKEIPNCTSV [SORCS3, Q9UPU3]",below the threshold

# Target: T9, PDZD7_3, Q9H5P4
# T9 sequence (Q9H5P4 857-944, limits assumed, looked up): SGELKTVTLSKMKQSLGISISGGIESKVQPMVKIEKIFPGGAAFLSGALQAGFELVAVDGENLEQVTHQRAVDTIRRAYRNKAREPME
# Test: holdup assay
# Parameters: key: below the threshold = too weak to quantify, mostly under pKd 3.1 to 4
# Settings: plain residues with an end cap or a label only (N-terminal biotin on a linker: ado-ado)
row,Binder,pKd
1,"GQNMTVSVVI [PRLHR, P49683]",4.4
2,"TKEIPNCTSV [SORCS3, Q9UPU3]",4.82

# Target: T10, GRIP1_7, Q9Y3R0
# T10 sequence (Q9Y3R0 999-1096, limits assumed, looked up): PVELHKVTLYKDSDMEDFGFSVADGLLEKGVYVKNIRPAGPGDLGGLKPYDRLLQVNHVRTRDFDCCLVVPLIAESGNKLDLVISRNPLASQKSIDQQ
# Test: holdup assay
# Parameters: key: below the threshold = too weak to quantify, mostly under pKd 3.1 to 4
# Settings: plain residues with an end cap or a label only (N-terminal biotin on a linker: ado-ado)
row,Binder,pKd
1,"GQNMTVSVVI [PRLHR, P49683]",below the threshold
2,"TKEIPNCTSV [SORCS3, Q9UPU3]",below the threshold

# Target: T11, APBA3_1, O96018
# T11 sequence (O96018 389-490, limits assumed, looked up): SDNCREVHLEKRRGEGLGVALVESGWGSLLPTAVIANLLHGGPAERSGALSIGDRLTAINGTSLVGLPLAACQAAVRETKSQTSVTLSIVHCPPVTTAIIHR
# Test: holdup assay
# Parameters: key: below the threshold = too weak to quantify, mostly under pKd 3.1 to 4
# Settings: plain residues with an end cap or a label only (N-terminal biotin on a linker: ado-ado)
row,Binder,pKd
1,"GQNMTVSVVI [PRLHR, P49683]",below the threshold
2,"TKEIPNCTSV [SORCS3, Q9UPU3]",below the threshold

# Target: T12, MPP6, Q9NZW5
# T12 sequence (Q9NZW5 125-219, limits assumed, looked up): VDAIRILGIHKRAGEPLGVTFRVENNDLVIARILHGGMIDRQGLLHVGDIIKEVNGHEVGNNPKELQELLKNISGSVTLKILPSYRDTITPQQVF
# Test: holdup assay
# Parameters: key: below the threshold = too weak to quantify, mostly under pKd 3.1 to 4
# Settings: plain residues with an end cap or a label only (N-terminal biotin on a linker: ado-ado)
row,Binder,pKd
1,"GQNMTVSVVI [PRLHR, P49683]",3.71
2,"TKEIPNCTSV [SORCS3, Q9UPU3]",below the threshold
